The supplement of paper PMC10567573

B1: ACBD3 (parent)
chain: YVASHKIEKEEQEKKRKEEEERRR
B2: ATL3 (parent)
chain: FSFRYQQELEEEIKELYENFCKHN

Variants of: B1
Assay: protein stability index of a GFP-peptide fusion (GPS, HEK-293T) (PSI 1-6); higher = more stable
Details: c terminus: a fixed tail appended
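Note: lentivirally expressed fusions sorted by FACS into six bins by GFP to DsRed ratio, PSI derived from sequencing read proportions per bin multiplied by bin number.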

| Variant | protein stability index |
| --- | --- |
| YVASHKIEKEEQEKKRKEEEERMR | 2.24 |
| YVASHKIEKEEQEKKRKEEEERYR | 2.64 |
| YVASHKIEKEEQEKKRKEEEERFR | 2.82 |
| YVASHKIEKEEQEKKRKEEEERKR | 2.74 |
| YVASHKIEKEEQEKKRKEEEERIR | 2.65 |
| YVASHKIEKEEQEKKRKEEEERQR | 2.71 |
| YVASHKIEKEEQEKKRKEEEERSR | 2.47 |
| YVASHKIEKEEQEKKRKEEEERCR | 2.44 |
| YVASHKIEKEEQEKKRKEEEERWR | 2.02 |
| YVASHKIEKEEQEKKRKEEEERDR | 3.16 |
| YVASHKIEKEEQEKKRKEEEERGR | 3.03 |
| YVASHKIEKEEQEKKRKEEEERTR | 3.43 |
| YVASHKIEKEEQEKKRKEEEERAR | 2.85 |
| YVASHKIEKEEQEKKRKEEEERER | 3.35 |
| YVASHKIEKEEQEKKRKEEEERVR | 2.65 |
| YVASHKIEKEEQEKKRKEEEERNR | 2.74 |
| YVASHKIEKEEQEKKRKEEEERLR | 2.7 |
| YVASHKIEKEEQEKKRKETEERRR | 2.57 |
| YVASHKIEKEEQEKKRKEVEERRR | 2.59 |
| YVASHKIEKEEQEKKRKEFEERRR | 2.68 |
| YVASHKIEKEEQEKKRKELEERRR | 2.39 |
| YVASHKIEKEEQEKKRKESEERRR | 2.54 |
| YVASHKIEKEEQEKKRKEMEERRR | 1.98 |
| YVASHKIEKEEQEKKRKEHEERRR | 2.44 |
| YVASHKIEKEEQEKKRKEYEERRR | 2.38 |

| Variant | protein stability index |
| --- | --- |
| YVASHKIEKEEQEKKRKEREERRR | 2.25 |
| YVASHKIEKEEQEKKRKECEERRR | 2.53 |
| YVASHKIEKEEQEKKRKEPEERRR | 1.81 |
| YVASHKIEKEEQEKKRKEIEERRR | 3.02 |
| YVASHKIEKEEQEKKRKEAEERRR | 2.6 |
| YVASHKIEKEEQEKKRKEDEERRR | 2.74 |
| YVASHKIEKEEQEKKRKEWEERRR | 2.19 |
| YVASHKIEKEEQEKKRKENEERRR | 1.94 |
| YVASHKIEKEEQEKKRKEKEERRR | 2.48 |
| YVASHKIEKEEQEKKRKEQEERRR | 2.61 |
| YVASHKIEKEEQEKKRKEGEERRR | 2.03 |
| YVASHKIEKEEQEKKFKEEEERRR | 2.34 |
| YVASHKIEKEEQEKKVKEEEERRR | 2.24 |
| YVASHKIEKEEQEKKGKEEEERRR | 2.88 |
| YVASHKIEKEEQEKKMKEEEERRR | 3.23 |
| YVASHKIEKEEQEKKSKEEEERRR | 2.65 |
| YVASHKIEKEEQEKKEKEEEERRR | 3.75 |
| YVASHKIEKEEQEKKNKEEEERRR | 2.63 |
| YVASHKIEKEEQEKKIKEEEERRR | 2.69 |
| YVASHKIEKEEQEKKYKEEEERRR | 2.74 |
| YVASHKIEKEEQEKKHKEEEERRR | 2.4 |
| YVASHKIEKEEQEKKQKEEEERRR | 2.94 |
| YVASHKIEKEEQEKKDKEEEERRR | 2.76 |
| YVASHKIEKEEQEKKKKEEEERRR | 2.92 |
| YVASHKIEKEEQEKKTKEEEERRR | 3.41 |

| Variant | protein stability index |
| --- | --- |
| YVASHKIEKEEQEKKAKEEEERRR | 3.02 |
| YVASHKIEKEEQEKKCKEEEERRR | 2.67 |
| YVASHKIEKEEQEKKLKEEEERRR | 3 |
| YVASHKIEKEEQEKKPKEEEERRR | 2.6 |
| YVASHKIEKEEQEKKWKEEEERRR | 2.27 |
| YVASHKIEKEEQEKKRKEEENRRR | 2.07 |
| YVASHKIEKEEQEKKRKEEELRRR | 2.28 |
| YVASHKIEKEEQEKKRKEEEPRRR | 2.35 |
| YVASHKIEKEEQEKKRKEEEVRRR | 3.05 |
| YVASHKIEKEEQEKKRKEEEKRRR | 2.35 |
| YVASHKIEKEEQEKKRKEEEIRRR | 2.57 |
| YVASHKIEKEEQEKKRKEEEARRR | 1.54 |
| YVASHKIEKEEQEKKRKEEESRRR | 2.52 |
| YVASHKIEKEEQEKKRKEEEHRRR | 3.13 |
| YVASHKIEKEEQEKKRKEEEGRRR | 2.03 |
| YVASHKIEKEEQEKKRKEEETRRR | 2.38 |
| YVASHKIEKEEQEKKRKEEEYRRR | 2.15 |
| YVASHKIEKEEQEKKRKEEEMRRR | 2.04 |
| YVASHKIEKEEQEKKRKEEEDRRR | 2.25 |
| YVASHKIEKEEQEKKRKEEECRRR | 2.21 |
| YVASHKIEKEEQEKKRKEEEWRRR | 2.67 |
| YVASHKIEKEEQEKKRKEEEFRRR | 2.45 |
| YVASHKIEKEEQEKKRKEEEQRRR | 2.37 |
| YVASHKIEKEEQEKKRKEEERRRR | 2.04 |

Variants of: B2
Assay: as above
Details: c terminus: a fixed tail appended

| Variant | protein stability index |
| --- | --- |
| FAFRYQQELEEEIKELYENFCKHN | 2.51 |
| WSFRYQQELEEEIKELYENFCKHN | 1.95 |
| RSFRYQQELEEEIKELYENFCKHN | 1.95 |
| KSFRYQQELEEEIKELYENFCKHN | 3.01 |
| CSFRYQQELEEEIKELYENFCKHN | 3.11 |
| YSFRYQQELEEEIKELYENFCKHN | 2.33 |
| SSFRYQQELEEEIKELYENFCKHN | 3.89 |
| TSFRYQQELEEEIKELYENFCKHN | 3.87 |
| GSFRYQQELEEEIKELYENFCKHN | 3.93 |
| LSFRYQQELEEEIKELYENFCKHN | 3.32 |
| HSFRYQQELEEEIKELYENFCKHN | 3.35 |
| NSFRYQQELEEEIKELYENFCKHN | 3.74 |
| ASFRYQQELEEEIKELYENFCKHN | 2.78 |
| QSFRYQQELEEEIKELYENFCKHN | 3.11 |
| MSFRYQQELEEEIKELYENFCKHN | 2.03 |
| ISFRYQQELEEEIKELYENFCKHN | 2.46 |
| VSFRYQQELEEEIKELYENFCKHN | 2.54 |
| PSFRYQQELEEEIKELYENFCKHN | 3.43 |
| DSFRYQQELEEEIKELYENFCKHN | 3.8 |
| ESFRYQQELEEEIKELYENFCKHN | 4.04 |
